Data from publication PMC11782487, “Cryo-EM structures reveal the H^+/citrate symport mechanism of Drosophila INDY” (Life Science Alliance, 2025).

Target: the molecule itself
Assay: cryo-EM structure; purified INDY in MSP1 nanodiscs (E. coli polar lipids); apo at pH 6 and pH 8, with 5 mM citrate, or with 150 uM DIDS; homodimer in all seven structures

B1: Drosophila I'm Not Dead Yet (INDY) (natural protein)
chain: not shown
notes: I'm Not Dead Yet (INDY), Drosophila melanogaster, full-length gene, GenBank AF509505.1; 590 amino acids; Eluted from the anti-GFP resin by overnight thrombin cleavage; residues of the thrombin site may be left at the C-terminus; Regions of poor density were modelled as polyalanine in the deposited structures; also called WT INDY; apo INDY; not shown: eGFP, C-terminal, cleaved; His10, C-terminal, …
- stoichiometry N: 2
